Experimental data published in publication PMC11538689 (2024).

Key:
[1] = target: nanobody‐based trispecific T cell engager (Nb‐TriTE) (human, UniProt P01857 = IgG part); experiment: SPR
[2] = target: Muromonab; experiment: SPR

Kd [1]: 0.337 nM
Kd [2]: 7.68 nM
B1: rhCD3 (protein)
chain: DGNEEMGGITQTPYKVSISGTTVILTCPQYPGSEILWQHNDKNIGGDEDDKNIGSDEDHLSLKEFSELEQSGYYVCYPRGSKPEDANFYLYLRARVCENCMEMD
